Measured values as given in PMC13371181, “A paracrine-to-autocrine shunt of GREM1 fuels colorectal cancer metastasis via ACVR1C” (Molecular Cancer, 2026).
Changes are numbered by the printed parent chain. In names and notes the source's numbering stands. Entries after “also recorded” stand apart in the source; their conditions may differ. Each block holds one molecule with its values, some of them ahead of it.

Columns and labels:
FGFR1 (Homo sapiens) = FGFR1 (Homo sapiens) (UniProt P11362); conditions: cited from earlier work
ACVR1C-ECD = experiment: MST binding of ACVR1C-ECD-Fc to GREM1-His or ACTIVIN B-His; set-up: species or system human; conditions: Monolith NT.115, ACVR1C-ECD-Fc 0–27.5 µM vs 50 nM red-fluorescently labeled His-protein, PBS pH 7.4, premium capillaries, n = 3 independent experiments, mean ± s.e.m.
Text: Expi293F cells were transfected with a pcDNA3.4-ACVR1C-ECD-Fc and pcDNA3.4-ACVR1C-ECD-Fc-double mutant (E85A/T101A) expression vector to produce the target protein, which was subsequently purified using a Protein G column. Briefly, the coding sequence (CDS) of the human ACVR1C extracellular domain (ACVR1C-ECD, NM_145259.3, residues 1–113) fused to an Fc tag was cloned into the pcDNA3.4 vector. Expi293F cells were transfected with this construct, the supernatant was harvested 5 days post transfection.
MST was carried out on a Monolith NT.115 instrument (NanoTemper Technologies GmbH, MO-L011). To evaluate ACVR1C-ECD or ACVR1C peptide or ACVR1C-ECD-double mutant (E85A/T101A) binding to GREM1-His or ACTIVIN B-His, an increasing concentration of purified ACVR1C-ECD-Fc protein (0–27.5 µM) or ACVR1C peptide (0–2.3 µM) or ACVR1C-ECD-double mutant (0–27.5 µM) was incubated with 50 nM red-fluorescently labeled (NanoTemper Technologies GmbH, MO-L011) GREM1-His protein (R&D, 5190-GR) or ACTIVIN B-His protein (SinoBiological, 10814-H08H). Experiments were carried out in a PBS buffer pH 7.4 using premium capillaries (NanoTemper Technologies GmbH, MO-K025).

[1] = target: T1, His-tagged full-length GREM1 (recombinant human GREM1-His) (human, UniProt O60565 25-184, red fluorescent label (NanoTemper, MO-L011) in the MST assays); experiment: MST; Monolith NT.115; 50 nM red-fluorescently labelled GREM1-His or ACTIVIN B-His, unlabelled partner titrated (ACVR1C-ECD-Fc or double mutant 0–27.5 µM, ACVR1C peptide 0–2.3 µM); PBS pH 7.4; n = 3; conditions: both partners purified
T1 construct: also called recombinant GREM1; rhGREM1; source: bought: R&D, 5190-GR
T1 sequence (looked up): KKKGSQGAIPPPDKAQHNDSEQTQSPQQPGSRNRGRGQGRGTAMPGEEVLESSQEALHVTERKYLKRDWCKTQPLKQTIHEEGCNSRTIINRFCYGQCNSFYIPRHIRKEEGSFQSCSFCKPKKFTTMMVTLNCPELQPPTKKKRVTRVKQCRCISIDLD

ACVR1C = experiment: Co-immunoprecipitation of GREM1 and ACVR1C; type: binding, human; conditions: co-IP, truncation or point mutants, HCT116 cells
Description: HCT116 cells were transfected with the indicated plasmids and lysed in NP40 lysis buffer (Beyotime, P0013F) supplemented with protease inhibitor cocktail (Thermo, 78446). Lysates were incubated with the indicated Anti-Flag nanobody magarose beads (Ktsm-life, KTSM1338), Anti-HA nanobody magarose beads (Ktsm-life, KTSM1335) or Anti-GFP nanobody magarose beads (Ktsm-life, KTSM1334) overnight at 4 °C. The protein complex was washed four times with the NP40 lysis buffer, eluted with 1×loading buffer (Beyotime, P0015) by boiling for 5 min, followed by mass spectrometry and immunoblotting with the indicated antibodies.
Protein was extracted from the cells with RIPA buffer (Beyotime, P0018) or NP40 lysis buffer (Beyotime, P0013F) and separated by SDS-PAGE, and transferred to polyvinylidene difluoride membranes. Primary antibodies against GREM1 (1:1,000, SinoBiological, 50016-R117), ACVR1C (1:1,000, Thermo, PA587475), Flag-tag (1:1,000, CST, 14793), HA-tag (1:1,000, CST, 3724), E-Cadherin (1:1,000, CST, 3195), β-Catenin (1:1,000, CST, 8480), ZEB1 (1:1,000, CST, 3396), Snail (1:1,000, CST, 3879), SMAD2/3 (1:1,000, CST, 8685), p-SMAD2/3 (1:1,000, CST, 8828), SMAD1 (1:1,000, CST, 6944), p-SMAD1/5/9 (1:1,000, CST, 13820), TGFβ (1:1,000, CST, 3709), TGFβR1 (0.3 µg/mL, R&D, AF3025), β-actin (1:5,000, Beyotime, AF0003) and GAPDH (1:5,000, Beyotime, AF0006) were used in this study. Peroxidase-conjugated secondary antibody (1:10,000, Cell Signaling Technology, 7074, 7076) was used and signal was visualized using an enhanced chemiluminescence assay (ECL, Thermo), according to the manufacturer’s protocol. Band intensity was quantified using Fiji (ImageJ) by grayscale analysis.

ACTIVIN B-His = ACTIVIN B-His (UniProt P09529); experiment: MST; Monolith NT.115; 50 nM red-fluorescently labelled GREM1-His or ACTIVIN B-His, unlabelled partner titrated (ACVR1C-ECD-Fc or double mutant 0–27.5 µM, ACVR1C peptide 0–2.3 µM); PBS pH 7.4; n = 3
[2] = tested on: CRC cells (SW480, HCT116, and MC38); experiment: GREM1 withdrawal assay, RT–qPCR and immunoblot; type: cell-based, human (SW480, mouse (MC38); conditions: rhGREM1 or rmGrem1 200 ng/mL 24 h, then GREM1-free medium 2 and 4 days
Description: To determine whether tumor cells that have acquired signaling autonomy can sustain GREM1 expression in the absence of external stimulation, we performed a GREM1 withdrawal assay. CRC cells (SW480, HCT116, and MC38) were first pulsed with rhGREM1 or recombinant mouse GREM1 (rmGrem1) for 24 h to initiate the signaling response. The medium containing rhGREM1 or rmGrem1 was then thoroughly removed, replaced with fresh GREM1-free medium, and the cells were cultured for an additional 4 days. […] This persistent, self-sustaining expression supports our conclusion that the initial rhGREM1 or rmGrem1 stimulation triggers a positive feedback loop of GREM1 transcription within CRC cells.
Protein was extracted from the cells with RIPA buffer (Beyotime, P0018) or NP40 lysis buffer (Beyotime, P0013F) and separated by SDS-PAGE, and transferred to polyvinylidene difluoride membranes. […] Band intensity was quantified using Fiji (ImageJ) by grayscale analysis.
Total RNA was extracted using Trizol reagent (Invitrogen, 15596026). […] The SYBR Green Premix Pro Taq HS qPCR Kit (Accurate Biology, AG11701) was then used to quantify mRNA expression according to the manufacturer’s instructions. All results were calculated using the 2^−ΔΔCt method. […]

Sequence of FGFR1 (Homo sapiens) (P11362 22-376): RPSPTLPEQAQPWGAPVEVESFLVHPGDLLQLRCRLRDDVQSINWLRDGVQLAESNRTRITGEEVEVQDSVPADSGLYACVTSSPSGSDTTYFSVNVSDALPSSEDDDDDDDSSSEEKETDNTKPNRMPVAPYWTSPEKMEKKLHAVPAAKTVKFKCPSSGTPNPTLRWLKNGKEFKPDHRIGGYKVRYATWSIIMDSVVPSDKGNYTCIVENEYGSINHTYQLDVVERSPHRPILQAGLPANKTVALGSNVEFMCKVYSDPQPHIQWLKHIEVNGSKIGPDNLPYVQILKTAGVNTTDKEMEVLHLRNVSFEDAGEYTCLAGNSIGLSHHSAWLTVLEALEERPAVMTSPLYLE

Molecule: GREM1 (from UniProt O60565)
- Kd (FGFR1 (Homo sapiens)): 10.6 nM

- Kd (ACVR1C-ECD): 854 ± 127 nM
Molecule: ACTIVIN B: a known ligand of ACVR1C; ACTIVIN B-His protein (SinoBiological, 10814-H08H)

- Kd [1]: 92.3 nM
Molecule: TECCFTDFCNNITLHLPTA (peptide, UniProt Q8NER5 84-102, looked up, ACVR1C, human, residues 84–102) [ACVR1C peptide (amino acid residues 84–102 of ACVR1C)]

B1: E85A: ACVR1C single mutant (protein, UniProt Q8NER5 21-493, looked up, variant E85A)
Activin receptor type-1C: ELSPGLKCVCLLCDSSNFTCQTEGACWASVMLTNGKEQVIKSCVSLPELNAQVFCHSSNNVTKTACCFTDFCNNITLHLPTASPNAPKLGPMELAIIITVPVCLLSIAAMLTVWACQGRQCSYRKKKRPNVEEPLSECNLVNAGKTLKDLIYDVTASGSGSGLPLLVQRTIARTIVLQEIVGKGRFGEVWHGRWCGEDVAVKIFSSRDERSWFREAEIYQTVMLRHENILGFIAADNKDNGTWTQLWLVSEYHEQGSLYDYLNRNIVTVAGMIKLALSIASGLAHLHMEIVGTQGKPAIAHRDIKSKNILVKKCETCAIADLGLAVKHDSILNTIDIPQNPKVGTKRYMAPEMLDDTMNVNIFESFKRADIYSVGLVYWEIARRCSVGGIVEEYQLPYYDMVPSDPSIEEMRKVVCDQKFRPSIPNQWQSCEALRVMGRIMRECWYANGAARLTALRIKKTISQLCVKEDCKA
- effect of deletion or mutation on GREM1–ACVR1C interaction (ACVR1C): significantly abrogated the GREM1–ACVR1C interaction
- effect of deletion or mutation on GREM1–ACVR1C interaction (ACVR1C; listed as AA85 mutant (M2)): impaired

B2: T101A: ACVR1C single mutant (protein)
chain: B1 Activin receptor type-1C with A65E, T81A
modifications: left off: Flag, end not stated, state not stated | GFP, end not stated, state not stated
notes: ACVR1C single mutant
- effect of deletion or mutation on GREM1–ACVR1C interaction (ACVR1C): significantly abrogated the GREM1–ACVR1C interaction
- effect of deletion or mutation on GREM1–ACVR1C interaction (ACVR1C; listed as AA101 mutant (M3) of ACVR1C): impaired

- Kd (ACTIVIN B-His): 854 nM
- Kd [1]: 67.7 nM
B3: Fc-tagged ACVR1C extracellular domain (ACVR1C-ECD, AA1–113) (Fc fusion, human, UniProt Q8NER5-1 21-113, looked up)
chain: ELSPGLKCVCLLCDSSNFTCQTEGACWASVMLTNGKEQVIKSCVSLPELNAQVFCHSSNNVTKTECCFTDFCNNITLHLPTASPNAPKLGPME
notes: signal peptide in the construct; Vector pcDNA3.4; also called ACVR1C-ECD-Fc; recombinant human ACVR1C-ECD and Fc chimera protein; source: Expi293F, transfected, purified from supernatant (Protein G column, ion exchange)

B4: Q101A/T102A/T112A/N115A quadruple mutation in GREM1: GREM1 point mutant (protein)
chain: T1 sequence (looked up) with Q77A, T78A, T88A, N91A
modifications: left off: HA, end not stated, state not stated | mCherry, end not stated, state not stated
notes: GREM1 point mutant
- effect of deletion or mutation on GREM1–ACVR1C interaction (ACVR1C): significantly abrogated the GREM1–ACVR1C interaction
- effect of deletion or mutation on GREM1–ACVR1C interaction (ACVR1C; listed as AA101/102/112/115 mutant (M3) of GREM1): impaired

B5: rmGrem1: recombinant mouse GREM1 (protein, UniProt O70326 25-184, looked up)
Gremlin-1: T1 sequence (looked up) with Q27P, N33T
- endogenous GREM1 expression after withdrawal [2]: not only maintained but in some cases further increased even after the withdrawal of exogenous GREM1; also recorded: maintained elevated endogenous GREM1 expression even after withdrawal of exogenous GREM1
